Blank lines part the entries; values can stand above or below the binder they belong to.
What was measured:
[1] = biological target: T1, recombinant human matrilin-3 protein (human, UniProt O15232 29-486); assay: ELISA, coated recombinant matrilin-3, purified scFv-Fc titrated 230 nM to 0.014 nM, HRP anti-Fc
T1 construct: Bought from R&D Systems; It was biotinylated through an Avi tag for the library selection; also called human recombinant matrilin-3
T1 sequence: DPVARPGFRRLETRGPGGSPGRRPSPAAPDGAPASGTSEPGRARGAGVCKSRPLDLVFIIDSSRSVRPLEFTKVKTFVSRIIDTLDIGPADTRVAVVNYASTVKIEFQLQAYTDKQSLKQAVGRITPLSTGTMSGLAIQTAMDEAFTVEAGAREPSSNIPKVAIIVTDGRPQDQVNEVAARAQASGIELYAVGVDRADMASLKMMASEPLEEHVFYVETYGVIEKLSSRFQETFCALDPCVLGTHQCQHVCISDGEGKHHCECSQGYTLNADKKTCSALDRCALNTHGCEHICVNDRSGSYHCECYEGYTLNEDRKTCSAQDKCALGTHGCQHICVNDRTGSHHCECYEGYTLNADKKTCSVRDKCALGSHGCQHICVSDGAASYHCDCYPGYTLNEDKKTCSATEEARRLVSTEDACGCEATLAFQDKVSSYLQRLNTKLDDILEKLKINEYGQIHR

[2] = biological target: T2, recombinant mouse matrilin-3 protein (mouse, UniProt O35701 28-481, limits assumed); assay: as above
T2 construct: also called mouse recombinant matrilin-3; His-Tagged recombinant mouse matrilin-3
T2 sequence (looked up): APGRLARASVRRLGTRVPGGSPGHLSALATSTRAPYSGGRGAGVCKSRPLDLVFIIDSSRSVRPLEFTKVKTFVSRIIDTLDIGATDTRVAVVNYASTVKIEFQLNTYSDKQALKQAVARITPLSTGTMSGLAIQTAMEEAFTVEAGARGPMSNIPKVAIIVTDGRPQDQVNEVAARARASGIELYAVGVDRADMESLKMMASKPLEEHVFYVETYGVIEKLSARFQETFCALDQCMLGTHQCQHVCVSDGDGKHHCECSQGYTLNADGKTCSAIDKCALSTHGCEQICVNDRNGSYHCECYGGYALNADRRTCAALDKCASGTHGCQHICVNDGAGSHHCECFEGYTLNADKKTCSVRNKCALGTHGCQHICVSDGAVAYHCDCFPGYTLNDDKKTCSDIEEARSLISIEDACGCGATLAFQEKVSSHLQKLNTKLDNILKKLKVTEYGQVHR

- EC50 [1]: < 1 nM
- EC50 [2]: < 1 nM
B1: matrilin-3-binding antibody fragment 13 (clone 13 scFv fused with human IgG1 Fc fragment) (Fc fusion)
scFv: LVQSGAEVKKPGASVKVSCKASGGTFSSYAISWVRQAPGQGLEWMGGIIPIFGTANYAQKFQGRVTITADKSTSTAYMELSSLRSEDTAVYYCARGQGYWFDPWGQGTLVTVSSGGGGSGGGASSGGGSDVQLTQSPSSLSASVGDRVTITCQASQDISNYLNWYQQKPGKAPKLLIYDASNLETGVPSRFSGSGSGTDFTFTISSLQPEDIATYYCQQYDNLPLTFGGGTKLEIK
notes: Tested as scFv-Fc (culture supernatant or protein A purified); not shown: human IgG1 Fc fragment encoded by the modified pSecTagB vector; Avi tag downstream of the Fc in the vector

- EC50 [1]: < 1 nM
- EC50 [2]: < 1 nM
B2: matrilin-3-binding antibody fragment 22 (clone 22 scFv fused with human IgG1 Fc fragment) (Fc fusion)
scFv: LQQSGPGLVKPSQTLSLTCAISGDSVSSNSAAWNWIRQSPSRGLEWLGRTYYGSKWYNDYAPSVKSRISINPDTSKNQFSLQLNSVTPEDTAVYYCTRGIWNAFDIWGQGTMVTVSSGGGGSGGGASGGGGSSSELTQDPAVSVALGQTVRITCQGDSLRSYYASWYQQKPGQAPLLVIYDRDNRPSGIPDRFSGSSSGNTASLTITGAQAEDEADYYCQSYDTSLSWVFGGGTQLTVL
notes: Tested as scFv-Fc; not shown: human IgG1 Fc fragment encoded by the modified pSecTagB vector; Avi tag downstream of the Fc in the vector

Source: patent US20160340418A1 (US Dept. of Health and Human Services, published 2016)
